Experimental data reported in the supplement of paper PMC10567573.

B1: TMEM40 (parent)
chain: YGETDFHKQDGKAGLFSQEQYERN

Variants of: B1
Test: protein stability index of a GFP-peptide fusion (GPS, HEK-293T) (PSI 1-6); higher = more stable
Conditions: c terminus: a fixed tail appended
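Note: lentivirally expressed fusions sorted by FACS into six bins by GFP to DsRed ratio, PSI derived from sequencing read proportions per bin multiplied by bin number.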

Protein stability index of substitutions, site by site:
R23: D 4.9 | K 4.37 | M 4.17 | P 4.21 | G 4.58 | N 4.16 | I 4.11 | Y 4.02 | A 4.69 | S 4.37 | F 4.04 | Q 4.3 | E 4.7 | L 4 | W 4.13 | V 3.67 | H 4.3 | T 4.62 | C 4.32
E19: Q 3.7 | D 4.45 | K 3.23 | G 3.66 | F 2.54 | V 3.22 | S 3.6 | P 3.72 | Y 3.15 | W 2.64 | C 3.48 | N 3.9 | H 3.29 | L 2.21 | A 3.54 | T 3.73 | M 3.15 | I 2.23 | R 3.49
Y21: A 4.04 | W 4.09 | D 4.95 | N 4.47 | K 4.54 | L 4.07 | S 4.63 | T 5.02 | I 4.65 | R 5.25 | P 4.32 | Q 4.44 | E 4.35 | H 4.73 | V 4.38 | M 3.92 | F 4.25 | C 3.95 | G 4.8
Q20: V 3.66 | M 3.92 | W 3 | S 4.3 | D 4.71 | Y 3.71 | R 3.92 | E 4.45 | L 3.42 | P 3.55 | A 4.32 | F 3.41 | N 4.12 | T 4.15 | K 3.79 | C 3.5 | I 3.85 | G 3.48 | H 4.01
S17: V 4.08 | M 3.97 | L 3.35 | H 3.54 | W 1.97 | K 3.44 | T 3.81 | E 4.51 | Y 3.66 | P 4.03 | Q 4.48 | C 4.07 | A 3.79 | G 3.94 | N 4.52 | R 4.27 | D 3.98 | F 3.1 | I 3.81
L15: Y 3.84
F16: Q 5.1 | W 3.08 | R 4.81 | D 5.25 | G 4.84 | Y 5.04 | E 4.3 | N 4.91 | P 5.02 | A 4.97 | C 3.78 | V 4.65 | K 4.38 | S 4.88 | H 5.06 | M 4.53 | I 4.58 | T 4.58 | L 4.47
E22: D 4.03 | G 3.83 | W 2.74 | K 3.67 | F 3.19 | I 3.29 | N 3.85 | V 3.76 | A 3.91 | Q 3.8 | C 3.61 | H 3.34 | P 3.48 | R 3.71 | T 4.01 | M 3.64 | L 3.61 | Y 3.23
Q18: W 3.45 | V 3.36 | G 4.26 | L 3.81 | F 3.65 | D 4.5 | C 2.82 | M 3.23 | E 4.6 | N 3.66 | S 3.3 | T 3.41 | K 4.55 | P 2.05 | I 3.58 | R 3.83 | H 4.29 | Y 3.4 | A 3.66
N24: T 3.89 | G 4.12 | A 3.63 | Q 4.09 | L 4.16 | S 4.22 | K 4.6 | I 3.54 | C 3.98 | P 3.25 | F 3.8 | E 4.54 | D 4.4 | H 3.88 | M 3.89
